Laboratory results taken from article PMC5825162.

B1: Recombinant, human, soluble EphB3-Fc (Fc fusion)
chain: GCRALEETLMDTKWVTSELAWTSHPESGWEEVSGYDEAMNPIRTYQVCNVRESSQNNWLRTGFIWRRDVQRVYVELKFTVRDCNSIPNIPGSCKETFNLFYYEADSDVASASSPFWMENPYVKVDTIAPDESFSRLDAGRVNTKVRSFGPLSKAGFYLAFQDQGACMSLISVRAFYKKCASTTAGFALFPETLTGAEPTSLVIAPGTCIPNAVEVSVPLKLYCNGDGEWMVPVGACTCATGHEPAAKESQCRPCPPGSYKAKQGEGPCLPCPPNSRTTSPAASICTCHNNFYRADSDSADSACTTVPSPPRGVISNVNETSLILEWSEPRDLGGRDDLLYNVICKKCHGAGGASACSRCDDNVEFVPRQLGLTERRVHISHLLAHTRYTFEVQAVNGVSGKSPLPPRYAAVNITTNQAAPSEVPTLRLHSSSGSSLTLSWAPPERPNGVILDYEMKYFEKSEGIASTVTSQMNSVQLDGLRPDARYVVQVRARTVAGYGQYSRPAEFETTSERGSGAQQLQEQLPL

Experiments:
[1] = target: KSHV gH/gL glycoprotein complex (gH-V5/gL-Flag), wild type (Kaposi's sarcoma-associated herpesvirus (KSHV)) (UniProt F5HAK9)
[2] = target: RRV gH/gL glycoprotein complex (gH-V5/gL-Flag), wild type (rhesus monkey rhadinovirus (RRV))

Sequence of UniProt F5HAK9 (F5HAK9 whole entry, looked up, one chain of several): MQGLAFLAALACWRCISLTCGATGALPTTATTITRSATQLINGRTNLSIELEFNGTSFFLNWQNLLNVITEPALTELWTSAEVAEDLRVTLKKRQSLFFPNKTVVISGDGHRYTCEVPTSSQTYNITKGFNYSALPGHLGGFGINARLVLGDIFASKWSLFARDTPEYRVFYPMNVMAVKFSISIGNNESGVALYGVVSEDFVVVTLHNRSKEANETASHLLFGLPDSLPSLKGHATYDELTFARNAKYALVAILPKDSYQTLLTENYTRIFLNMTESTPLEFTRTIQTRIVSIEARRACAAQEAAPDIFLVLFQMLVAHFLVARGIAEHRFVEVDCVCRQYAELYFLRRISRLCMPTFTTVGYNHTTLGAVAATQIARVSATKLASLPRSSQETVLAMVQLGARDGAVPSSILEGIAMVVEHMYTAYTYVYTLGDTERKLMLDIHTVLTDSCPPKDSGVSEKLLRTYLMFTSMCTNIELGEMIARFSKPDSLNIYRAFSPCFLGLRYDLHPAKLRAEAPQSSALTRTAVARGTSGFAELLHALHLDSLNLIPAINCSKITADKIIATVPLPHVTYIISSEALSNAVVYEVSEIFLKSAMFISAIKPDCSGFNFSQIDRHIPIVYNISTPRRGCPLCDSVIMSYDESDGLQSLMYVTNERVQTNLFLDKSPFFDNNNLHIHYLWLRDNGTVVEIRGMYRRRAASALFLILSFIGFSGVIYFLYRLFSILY

Row | Molecule | inhibition of KSHV wt infection of SLK cells (GFP, flow cytometry) after pre-incubation of the virus with soluble EphA2-Fc, dose series; gH/gL on virions [1] | inhibition of RRV 26–95 wt infection of SLK cells (YFP, flow cytometry) after pre-incubation of the virus with soluble EphB3-Fc, dose series; gH/gL on virions [2]
1 | soluble EphA2-Fc fusion construct comprising amino acids 25–534 of human EphA2 (from UniProt P29317-1 25-534) | 90% | –
2 | B1 | – | 80%
